Data: article PMC3717276, “Optimization and validation of mitochondria-based functional assay as a useful tool to identify BH3-like molecules selectively targeting anti-apoptotic Bcl-2 proteins” (BMC Biotechnology, 2013)
Ends that are not written are not given here. * marks the point of attachment. 6FAM = O=C1OC2(c3ccc(O)cc3Oc3cc(O)ccc32)c2cc(C(=O)*)ccc21

B1: Bid BH3 peptide (residues 79-99) (peptide)
peptide: QEDIIRNIARHLAQVGDSMDR
notes: Bid BH3 peptide, residues 79-99 of Swiss-Prot P55957; also called unlabeled Bid BH3 peptide; source: provided by Dr. Peter P Roller (National Cancer Institute)
B2: Noxa BH3 peptide (residues 18-43) (peptide)
peptide: PAELEVECATQLRRFGDKLNFRQKLL
notes: Noxa BH3 peptide, residues 18-43 of Swiss-Prot Q13794; source: provided by Dr. Peter P Roller (National Cancer Institute)
B3: Human Mcl-1 protein, residues 171-327, N-terminal 8xHis tag (domain or fragment, UniProt Q07820-1 171-327, looked up)
chain: EDELYRQSLEIISRYLREQATGAKDTKPMGRSGATSRKALETLRRVGDGVQRNHETAFQGMLRKLDIKNEDDVKSLSRVMIHVFSDGVTNWGRIVTLISFGAFVAKHLKTINQESCIEPLAESITDVLVRTKRDWLVKQRGWDGFVEFFHVEDLEGG
notes: human Mcl-1 fragment (NM_021960), residues 171-327; Cloned into the pHis-TEV vector; source: E. coli BL21(DE3), purified (Ni-NTA, Source Q15)
B4: 21-residue Bid BH3 peptide labeled at the N-terminus with 6-carboxyfluorescein succinimidyl ester (FAM-Bid) (peptide)
peptide: 6FAM-QEDIIRNIARHLAQVGDSMDR
notes: Bid BH3 peptide, residues 79-99 of Swiss-Prot P55957; also called Flu-Bid; source: synthetic peptide
B5: Bad BH3 peptide (residues 103-128) (peptide)
peptide: NLWAAQRYGRELRRMSDEFVDSFKKG
notes: Bad BH3 peptide, residues 103-128 of GenBank CAG46757; source: provided by Dr. Peter P Roller (National Cancer Institute)

How the values were obtained:
Conditions in all cases: both partners purified
[1] = target: B3; experiment: fluorescence polarisation; competition: Mcl-1 (20 nM) or Bcl-2 (40 nM) pre-incubated with FAM-Bid (2 nM and 2.5 nM), tested BH3 peptide added, 2-3 h; 100 mM potassium phosphate, pH 7.5, 100 ug/ml bovine gamma globulin, 0.02% sodium azide; Ki calculated from IC50
[2] = target: B3; experiment: SPR; competitive solution binding: protein (20 nM) pre-incubated with tested BH3 peptide for at least 30 min, injected over immobilised biotin-Bim BH3 peptide; response at 30 s of dissociation
[3] = target: T1, Human Bcl-xL protein with internal deletion of 45-85 and C-terminal truncation of 212-233, N-terminal 8xHis … (human, UniProt Q07817-1 1-211, internal deletion of 45–85); experiment: fluorescence polarisation; competition: 30 nM Bcl-xL and 2.5 nM FAM-Bak, tested BH3 peptide added; 50 mM Tris-Bis, pH 7.4, 0.01% bovine gamma globulin; Ki calculated from IC50
T1 construct: human Bcl-xL (NM_138578), internal deletion of residues 45-85 and C-terminal truncation of 212-233; Cloned into the pHis-TEV vector (a modified pET vector); source: E. coli BL21(DE3), purified (Ni-NTA, Superdex75)
T1 sequence (Q07817 other isoform, or with tags, fused parts or gaps internal deletion of 45–85 | internal deletion of 45–85): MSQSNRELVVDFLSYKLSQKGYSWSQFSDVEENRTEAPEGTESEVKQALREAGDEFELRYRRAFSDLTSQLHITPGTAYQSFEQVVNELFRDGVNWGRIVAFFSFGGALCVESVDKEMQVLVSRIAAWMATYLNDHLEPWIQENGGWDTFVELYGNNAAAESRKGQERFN

[4] = target: T1, Human Bcl-xL protein with internal …; experiment: SPR; competitive solution binding: protein (20 nM) pre-incubated with tested BH3 peptide for at least 30 min, injected over immobilised biotin-Bim BH3 peptide; response at 30 s of dissociation
[5] = target: T2, Biotin-labeled Bim BH3 peptide (residues 81-106) (biotin label, position not stated); experiment: SPR; biotin-labeled Bim BH3 peptide immobilised on a streptavidin SA chip; proteins injected at different concentrations in HBS-EP (10 mM HEPES pH 7.4, 150 mM NaCl, 3 mM EDTA, 0.005% P20)
T2 construct: Bim BH3 peptide, residues 81-106 of Swiss-Prot O43521; also called immobilized Bim BH3 peptide; Bim peptide
T2 sequence (peptide, as listed by the source): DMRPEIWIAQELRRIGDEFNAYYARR

[6] = target: B3; experiment: fluorescence polarisation; saturation experiments with FAM-Bid and Mcl-1 or Bcl-2 protein; assay buffer 100 mM potassium phosphate, pH 7.5, 100 ug/ml bovine gamma globulin, 0.02% sodium azide

| Binder | Ki [1] | IC50 [2] | Ki [3] | IC50 [4] | Kd [5] | Kd [6] |
| --- | --- | --- | --- | --- | --- | --- |
| B1 | 6 nM | 60.1 nM | – | – | – | – |
| B2 | 97 nM | 51 nM | > 10000 nM | > 30000 nM | – | – |
| B3 | – | – | – | – | 0.2 nM | – |
| B4 | – | – | – | – | – | 2.8 nM |
| B5 | > 20000 nM | > 30000 nM | 3.2 nM | 8.64 nM | – | – |
